Data as given in patent US20140120555A1 (PIERRE FABRE MEDICAMENT, published 2014).
Positions count from the first letter of the chain named. Names and notes keep the numbering of the source.

Key:
[1] = biological target: T1, Recombinant mouse FcγRIII [CD16], Ala31-Thr215 with C-terminal 10-His tag (mouse, UniProt P08508 31-215); assay: SPR (Biacore X), Mab on CM4 chip, m-FcγRIII as analyte, Langmuïr model
T1 construct: Soluble form bought from R&D Systems; also called m-FcγRIII
T1 sequence: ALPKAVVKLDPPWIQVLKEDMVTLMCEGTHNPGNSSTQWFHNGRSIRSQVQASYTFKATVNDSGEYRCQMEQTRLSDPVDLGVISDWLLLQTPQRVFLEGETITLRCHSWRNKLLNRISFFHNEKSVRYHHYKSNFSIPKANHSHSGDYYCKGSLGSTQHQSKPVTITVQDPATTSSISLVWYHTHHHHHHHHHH
Procedure: (§1) 2017 RU of c515H7 Mab were immobilized using the amine coupling kit chemistry on the second flowcell (FC2) of a CM4 sensorchip. The first flowcell (FC1) activated by NHS and EDC mixture and des-activated by ethanolamine served as the reference surface to check and subtract the non specific interaction between the analyte (Fc gamma receptors) and the sensorchip matrix.
(§2) The kinetic experiments were carried out at 25° Celsius at a flow rate of 30 μl/min. The HBS-EP buffer was used either as the running buffer or for the preparation of analyte solutions. The analyte solutions were injected during 90 seconds (association phase) with a 90 seconds delay (dissociation phase). An injection of running buffer as analyte was used as a double reference. All the sensorgrams were corrected by this double reference sensorgram.
(§3) After each injection of the analyte, the sensorchip was regenerated by injection of 20 mM NaOH, 75 mM NaCl solution.

[2] = biological target: T1, Recombinant mouse FcγRIII [CD16], …; assay: SPR (Biacore X): m-FcγRIII injected over c515H7 Mab immobilized on a CM4 sensorchip; heterogeneous ligand model, major component (99%)
Procedure: as §1, §2, §3

[3] = biological target: T2, Recombinant mouse FcγRI [CD64], Gln25-Pro297 with C-terminal 6-His tag (mouse, UniProt P26151 25-297); assay: SPR (Biacore X), Mab on CM4 chip, m-FcγRI as analyte, heterogeneous ligand model, major component; major component (81%), lower value
T2 construct: range 25-297; Soluble form bought from R&D Systems; also called m-FcγRI
T2 sequence: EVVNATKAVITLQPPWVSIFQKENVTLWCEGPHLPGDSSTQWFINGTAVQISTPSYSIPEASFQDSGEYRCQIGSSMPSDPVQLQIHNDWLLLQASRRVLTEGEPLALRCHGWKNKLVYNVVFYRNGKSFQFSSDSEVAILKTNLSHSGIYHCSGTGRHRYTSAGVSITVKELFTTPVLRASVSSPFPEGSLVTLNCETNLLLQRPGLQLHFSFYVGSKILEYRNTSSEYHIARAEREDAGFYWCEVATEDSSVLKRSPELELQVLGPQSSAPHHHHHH
Procedure: as §1, §2
According to this model, the c515H7 Mab Fc domain may be regarded as a mixture of two components.

[4] = biological target: T2, Recombinant mouse FcγRI [CD64], …; assay: SPR (Biacore X), Mab on CM4 chip, m-FcγRI as analyte, heterogeneous ligand model, major component
Procedure: as §1, with “1964” for “2017”, “hz515H7VH1D76NVL2” for “c515H7”
as §2
(§4) According to this model, the hz515H7VH1D76NVL2 Mab Fc domain may be regarded as a mixture of two components.

[5] = biological target: T2, Recombinant mouse FcγRI [CD64], …; assay: SPR (Biacore X), heterogeneous ligand model, m-FcγRI as analyte
Procedure: as §1, with “1964” for “2017”, “hz515H7VH1D76NVL2” for “c515H7”
as §2, §4

[6] = biological target: T3, Recombinant human FcγRI [CD64], Gln16-Pro288 with C-terminal 6-His tag (human, UniProt P12314 16-288); assay: SPR (Biacore X): h-FcγRI injected over hz515H7VH1D76NVL2 Mab immobilized on a CM4 sensorchip; Langmuir model
T3 construct: range 16-288; Soluble form bought from R&D Systems; also called h-FcγRI
T3 sequence (P12314 other isoform, or with tags, fused parts or gaps limits assumed): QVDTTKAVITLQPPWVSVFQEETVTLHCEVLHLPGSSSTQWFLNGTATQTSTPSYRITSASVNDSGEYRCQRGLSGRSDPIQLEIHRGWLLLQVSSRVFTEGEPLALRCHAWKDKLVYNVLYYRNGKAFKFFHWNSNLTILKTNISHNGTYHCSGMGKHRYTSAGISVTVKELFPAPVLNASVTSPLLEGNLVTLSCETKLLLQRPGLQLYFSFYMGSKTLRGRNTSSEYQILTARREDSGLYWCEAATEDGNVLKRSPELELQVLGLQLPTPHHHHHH
Procedure: The experiments were carried out using a Biacore X device. The soluble forms of the four Fc […]gamma receptors used in this study were purchased from R&D Systems: […]

[7] = biological target: T1, Recombinant mouse FcγRIII [CD16], …; assay: SPR (Biacore X): m-FcγRIII injected over hz515H7VH1D76NVL2 Mab immobilized on a CM4 sensorchip; heterogeneous ligand model, minor component (34%)
[8] = biological target: T4, Recombinant human FcγRIIIA variant V [CD16a], Gln17-Gln208 with C-terminal 6-His tag (human, UniProt P08637 17-208); assay: SPR (Biacore X): h-FcγRIIIA injected over hz515H7VH1D76NVL2 Mab immobilized on a CM4 sensorchip; Langmuir model
T4 construct: range 17-208; 'variant V' is given without a position, so no substitution is written; also called h-FcγRIIIA
T4 sequence (P08637 other isoform, or with tags, fused parts or gaps mutant limits assumed, form in doubt): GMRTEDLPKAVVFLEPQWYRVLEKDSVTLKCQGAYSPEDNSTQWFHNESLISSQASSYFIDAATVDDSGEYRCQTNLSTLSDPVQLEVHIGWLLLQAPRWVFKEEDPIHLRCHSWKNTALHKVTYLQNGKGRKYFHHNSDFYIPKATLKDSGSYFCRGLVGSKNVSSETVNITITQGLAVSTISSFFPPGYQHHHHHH
Procedure: as §1, with “1964” for “2017”, “hz515H7VH1D76NVL2” for “c515H7”
as §2
(§5) After each injection of the analyte, the sensorchip was regenerated by injection of either 20 mM NaOH solution after h-FcγRI and m-FcγRIII or 10 mM NaOH after h-FcγRIIIA and m-FcγRI.

[9] = biological target: T1, Recombinant mouse FcγRIII [CD16], …; assay: SPR (Biacore X), Mab on CM4 chip, m-FcγRIII as analyte, Langmuïr model; lower of the two Langmuïr-fit values
Procedure: as §1, with “1964” for “2017”, “hz515H7VH1D76NVL2” for “c515H7”
as §2
Using the Langmuïr model the constant of dissociation was around 17 and 18 nM.

[10] = biological target: T2, Recombinant mouse FcγRI [CD64], …; assay: SPR (Biacore X): m-FcγRI injected over hz515H7VH1D76NVL2 Mab immobilized on a CM4 sensorchip; Langmuir model
Procedure: as §1, with “1964” for “2017”, “hz515H7VH1D76NVL2” for “c515H7”
as §2, §5

B1: chimeric antibody c515H7 (antibody, human IgG1, kappa)
heavy: not shown
light: DIVMSQSPSSLAVSAGEKVTMSCKSSQSLFNSRTRKNYLAWYQQKPGQSPKLLIYWASARDSGVPARFTGSGSETYFTLTISRVQAEDLAVYYCMQSFNLRTFGGGTKLEIKRTVAAPSVFIFPPSDEQLKSGTASVVCLLNNFYPREAKVQWKVDNALQSGNSQESVTEQDSKDSTYSLSSTLTLSKADYEKHKVYACEVTHQGLSSPVTKSFNRGEC
notes: Human IgG1/kappa constant domains; also called c515H7 Mab; chimeric 515H7
- Kd [1]: ~20 nM
- Kd [2]: 20.9 nM
- koff [2]: 0.00446 s⁻¹
- kon [2]: 213000 M⁻¹ s⁻¹
- Kd [3]: ~380 nM

B2: humanized antibody Hz515H7 VH1 D76N VL2 (antibody, human IgG1, kappa)
heavy: not shown
light: B1 light with S5T, A15L, K18R, V19A, G105Q, L109V
notes: IgG1/kappa; also called hz515H7VL2; hz515H7-1
- Kd [4]: 75 to 80 nM
- fold association rate, major versus minor component [5]: 5.7 fold
- fold dissociation rate, major versus minor component [5]: 4.8 fold
- Kd [6]: 0.93 nM
- koff [6]: 0.00054 s⁻¹
- kon [6]: 578000 M⁻¹ s⁻¹
- Kd [7]: 61.4 nM
- koff [7]: 0.0299 s⁻¹
- kon [7]: 487000 M⁻¹ s⁻¹
- Kd [8]: 75.2 nM
- koff [8]: 0.0351 s⁻¹
- kon [8]: 467000 M⁻¹ s⁻¹
- Kd [9]: ~17 nM
- Kd [10]: 77 nM
- koff [10]: 0.0648 s⁻¹
- kon [10]: 842000 M⁻¹ s⁻¹
